{"source": "patent US20240410900A1", "key": {"[1]": {"target": "targeted IgG-IL2 (interleukin-2 fused to the C-terminus of a heavy chain of an antibody specifically binding to a therapeutic target)", "experiment": "bridging ELISA, drug-Bi and drug-Dig, human pooled serum, binder 500 ng/mL assay / 10000 ng/mL matrix"}, "[2]": {"target": "non-targeted IgG-IL2 (interleukin-2 fused to the C-terminus of a heavy chain of a germline antibody, which is not binding to a target)", "experiment": "bridging ELISA, drug-Bi and drug-Dig, human pooled serum, binder 500 ng/mL assay / 10000 ng/mL matrix"}, "[3]": {"target": "TCB (T-cell bispecific format) drug antibody", "experiment": "bridging ELISA, drug-Bi and drug-Dig, human pooled serum, binder 500 ng/mL assay / 10000 ng/mL matrix"}, "[4]": {"target": "non-targeted IgG-IL2 (interleukin-2 fused to the C-terminus of a heavy chain of a germline antibody, which is not binding to a target)", "experiment": "bridging ELISA, IgG-IL2-Bi and -Dig, binder 2.0 ng/mL assay / 39 ng/mL matrix"}, "[5]": {"target": "targeted IgG-IL2 (interleukin-2 fused to the C-terminus of a heavy chain of an antibody specifically binding to a therapeutic target)", "experiment": "bridging ELISA, drug-Bi and drug-Dig, human pooled serum, binder 125 ng/mL assay / 2500 ng/mL matrix"}, "[6]": {"target": "non-targeted IgG-IL2 (interleukin-2 fused to the C-terminus of a heavy chain of a germline antibody, which is not binding to a target)", "experiment": "bridging ELISA, drug-Bi and drug-Dig, human pooled serum, binder 125 ng/mL assay / 2500 ng/mL matrix"}, "[7]": {"target": "TCB (T-cell bispecific format) drug antibody", "experiment": "bridging ELISA, drug-Bi and drug-Dig, human pooled serum, binder 125 ng/mL assay / 2500 ng/mL matrix"}, "[8]": {"target": "targeted IgG-IL2 (interleukin-2 fused to the C-terminus of a heavy chain of an antibody specifically binding to a therapeutic target)", "experiment": "bridging ELISA, drug-Bi and drug-Dig, human pooled serum, binder 0.03 ng/mL assay / 0.6 ng/mL matrix"}, "[9]": {"target": "non-targeted IgG-IL2 (interleukin-2 fused to the C-terminus of a heavy chain of a germline antibody, which is not binding to a target)", "experiment": "bridging ELISA, drug-Bi and drug-Dig, human pooled serum, binder 0.03 ng/mL assay / 0.6 ng/mL matrix"}, "[10]": {"target": "TCB (T-cell bispecific format) drug antibody", "experiment": "bridging ELISA, drug-Bi and drug-Dig, human pooled serum, binder 0.03 ng/mL assay / 0.6 ng/mL matrix"}, "[11]": {"target": "non-targeted IgG-IL2 (interleukin-2 fused to the C-terminus of a heavy chain of a germline antibody, which is not binding to a target)", "experiment": "bridging ELISA, IgG-IL2-Bi and -Dig, binder 0.06 ng/mL assay / 1.2 ng/mL matrix"}, "[12]": {"target": "non-targeted IgG-IL2 (interleukin-2 fused to the C-terminus of a heavy chain of a germline antibody, which is not binding to a target)", "experiment": "bridging ELISA, IgG-IL2-Bi and -Dig, binder 0.1 ng/mL assay / 2.4 ng/mL matrix"}, "[13]": {"target": "non-targeted IgG-IL2 (interleukin-2 fused to the C-terminus of a heavy chain of a germline antibody, which is not binding to a target)", "experiment": "bridging ELISA, IgG-IL2-Bi and -Dig, binder 125 ng/mL assay / 2500 ng/mL matrix"}, "[14]": {"target": "non-targeted IgG-IL2 (interleukin-2 fused to the C-terminus of a heavy chain of a germline antibody, which is not binding to a target)", "experiment": "bridging ELISA, IgG-IL2-Bi and -Dig, binder 0.03 ng/mL assay / 0.6 ng/mL matrix"}, "[15]": {"target": "non-targeted IgG-IL2 (interleukin-2 fused to the C-terminus of a heavy chain of a germline antibody, which is not binding to a target)", "experiment": "bridging ELISA, IgG-IL2-Bi and -Dig, binder 63 ng/mL assay / 1250 ng/mL matrix"}, "[16]": {"target": "targeted IgG-IL2 (interleukin-2 fused to the C-terminus of a heavy chain of an antibody specifically binding to a therapeutic target)", "experiment": "bridging ELISA, drug-Bi and drug-Dig, human pooled serum, binder 3.9 ng/mL assay / 78 ng/mL matrix"}, "[17]": {"target": "non-targeted IgG-IL2 (interleukin-2 fused to the C-terminus of a heavy chain of a germline antibody, which is not binding to a target)", "experiment": "bridging ELISA, drug-Bi and drug-Dig, human pooled serum, binder 3.9 ng/mL assay / 78 ng/mL matrix"}, "[18]": {"target": "TCB (T-cell bispecific format) drug antibody", "experiment": "bridging ELISA, drug-Bi and drug-Dig, human pooled serum, binder 3.9 ng/mL assay / 78 ng/mL matrix"}, "[19]": {"target": "non-targeted IgG-IL2 (interleukin-2 fused to the C-terminus of a heavy chain of a germline antibody, which is not binding to a target)", "experiment": "bridging ELISA, IgG-IL2-Bi and -Dig, binder 0.2 ng/mL assay / 4.9 ng/mL matrix"}, "[20]": {"target": "targeted IgG-IL2 (interleukin-2 fused to the C-terminus of a heavy chain of an antibody specifically binding to a therapeutic target)", "experiment": "bridging ELISA, drug-Bi and drug-Dig, human pooled serum, binder 250 ng/mL assay / 5000 ng/mL matrix"}, "[21]": {"target": "non-targeted IgG-IL2 (interleukin-2 fused to the C-terminus of a heavy chain of a germline antibody, which is not binding to a target)", "experiment": "bridging ELISA, drug-Bi and drug-Dig, human pooled serum, binder 250 ng/mL assay / 5000 ng/mL matrix"}, "[22]": {"target": "TCB (T-cell bispecific format) drug antibody", "experiment": "bridging ELISA, drug-Bi and drug-Dig, human pooled serum, binder 250 ng/mL assay / 5000 ng/mL matrix"}, "[23]": {"target": "targeted IgG-IL2 (interleukin-2 fused to the C-terminus of a heavy chain of an antibody specifically binding to a therapeutic target)", "experiment": "bridging ELISA, drug-Bi and drug-Dig, human pooled serum, binder 2.0 ng/mL assay / 39 ng/mL matrix"}, "[24]": {"target": "non-targeted IgG-IL2 (interleukin-2 fused to the C-terminus of a heavy chain of a germline antibody, which is not binding to a target)", "experiment": "bridging ELISA, drug-Bi and drug-Dig, human pooled serum, binder 2.0 ng/mL assay / 39 ng/mL matrix"}, "[25]": {"target": "TCB (T-cell bispecific format) drug antibody", "experiment": "bridging ELISA, drug-Bi and drug-Dig, human pooled serum, binder 2.0 ng/mL assay / 39 ng/mL matrix"}}, "data": [{"binder": "multivalent anti-PG antibody derived from clone 1.7.24 (mixed Pool 2, 3, 4) (antibody, V domains shown, lysine amines derivatised with SATP or MHS and cross-linked (sites not given)) VH: EVKLLESGGGLVQPGGSLKLSCAASGFDFSRYWMNWVRQAPGKGLEWIGEITPDSSTINYTPSLKDKFIISRDNAKNTLYLQMIKVRSEDTALYYCVRPYDYGAWFASWGQGTLVTVSA VL: QAVVTQESALTTSPGETVTLTCRSSTGAVTTSNYANWVQEKPDHLFTGLIGGTNKRAPGVPARFSGSLIGDKAALTITGAQTEDEAIYFCALWYSNHWVFGGGTKLTVL", "values": [{"measurement": "signal [AU]", "setting": "[1]", "result": 3.01, "unit": "AU"}, {"measurement": "signal [AU]", "setting": "[2]", "result": 2.81, "unit": "AU"}, {"measurement": "signal [AU]", "setting": "[3]", "result": 2.99, "unit": "AU"}, {"measurement": "signal [AU]", "setting": "[4]", "result": 0.165, "unit": "AU"}, {"measurement": "signal [AU]", "setting": "[5]", "result": 3.05, "unit": "AU"}, {"measurement": "signal [AU]", "setting": "[6]", "result": 1.4, "unit": "AU"}, {"measurement": "signal [AU]", "setting": "[7]", "result": 3.05, "unit": "AU"}, {"measurement": "signal [AU]", "setting": "[8]", "result": 0.04, "unit": "AU"}, {"measurement": "signal [AU]", "setting": "[9]", "result": 0.0425, "unit": "AU"}, {"measurement": "signal [AU]", "setting": "[10]", "result": 0.0455, "unit": "AU"}, {"measurement": "signal [AU]", "setting": "[11]", "result": 0.056, "unit": "AU"}, {"measurement": "signal [AU]", "setting": "[12]", "result": 0.058, "unit": "AU"}, {"measurement": "signal [AU]", "setting": "[13]", "result": 3.08, "unit": "AU"}, {"measurement": "signal [AU]", "setting": "[14]", "result": 0.0525, "unit": "AU"}, {"measurement": "signal [AU]", "setting": "[15]", "result": 2.85, "unit": "AU"}, {"measurement": "signal [AU]", "setting": "[16]", "result": 0.261, "unit": "AU"}, {"measurement": "signal [AU]", "setting": "[17]", "result": 0.088, "unit": "AU"}, {"measurement": "signal [AU]", "setting": "[18]", "result": 0.35, "unit": "AU"}, {"measurement": "signal [AU]", "setting": "[19]", "result": 0.0645, "unit": "AU"}, {"measurement": "signal [AU]", "setting": "[20]", "result": 2.99, "unit": "AU"}, {"measurement": "signal [AU]", "setting": "[21]", "result": 2.17, "unit": "AU"}, {"measurement": "signal [AU]", "setting": "[22]", "result": 2.99, "unit": "AU"}, {"measurement": "signal [AU]", "setting": "[23]", "result": 0.148, "unit": "AU"}, {"measurement": "signal [AU]", "setting": "[24]", "result": 0.0615, "unit": "AU"}, {"measurement": "signal [AU]", "setting": "[25]", "result": 0.195, "unit": "AU"}]}]}
